Reference: publication PMC6436656

Target: human GPR35 (GPR35a splice variant), receptor part of the hGPR35 SPASM sensors, Q9HC97
Assay: BRET (hGPR35 SPASM sensor)
Conditions: chain shown with the change, highest concentration, read off a plot
[1] = bufrolin, 1e-6 M, parent: est. 1.1
[2] = lodoxamide, 1e-6 M, parent: est. 1.1
[3] = pamoic acid, about 10^-5.5 M, parent: est. 1.0
[4] = zaprinast, 1e-4 M, parent: est. 1.1

Sequence of human GPR35 (GPR35a splice variant), receptor part of the hGPR35 SPASM sensors, Q9HC97 (Q9HC97 whole entry, change not shown, canonical isoform): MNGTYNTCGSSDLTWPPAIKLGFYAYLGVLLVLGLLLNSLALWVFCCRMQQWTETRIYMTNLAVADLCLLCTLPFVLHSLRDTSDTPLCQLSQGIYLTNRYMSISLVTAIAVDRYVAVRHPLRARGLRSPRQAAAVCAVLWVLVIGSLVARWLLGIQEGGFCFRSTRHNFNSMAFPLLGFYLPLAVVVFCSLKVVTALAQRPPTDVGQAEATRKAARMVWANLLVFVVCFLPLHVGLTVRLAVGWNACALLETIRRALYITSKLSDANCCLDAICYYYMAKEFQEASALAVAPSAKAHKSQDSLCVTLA

Row | response (BRET ratio (fold change)) [1] | response (BRET ratio (fold change)) [2] | response (BRET ratio (fold change)) [3] | response (BRET ratio (fold change)) [4] | Binder
1 | 1.4 | 1.4 | 1.1 | 1.4 | DTENVRFVFHAVKDTILQENLKDLMLQ [final 27 aa of Gα12, G peptide of the hGPR35-Gα12 SPASM sensor, Q03113 G.H5.23 Ile to Leu]
2 | 1.1 | 1.2 | 1.1 | 1.2 | DTENVRFVFHAVKDTILQENLKQIMLQ [final 27 aa of Gα12, G peptide of the hGPR35-Gα12 SPASM sensor, Q03113 G.H5.22 Asp to Gln]
